Assay results from the supplement of paper PMC10567573.
± gives the standard deviation.

Experiment: protein stability index of a GFP-peptide fusion (GPS, HEK-293T) (PSI 1-6); higher = more stable
[1] = treatment: DMSO, c terminus: a fixed tail appended
[2] = treatment: MLN4924 1 uM, 8 h, c terminus: a fixed tail appended
[3] = treatment: DMSO, c terminus: native
[4] = treatment: MLN4924 1 uM, 8 h, c terminus: native
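Also: 24-mer peptide tiles fused after GFP, lentivirally expressed, FACS-sorted into six equal bins by GFP/DsRed ratio, decoded by Illumina sequencing, PSI is the read-weighted mean bin number.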

Row | Sequence | protein stability index [1] | protein stability index [2] | protein stability index [3] | protein stability index [4]
1 | GLNHSLSYDVALHRTRLQDLRVLV [SCARA5] | 2.2 ± 0.34 | 2.13 ± 0.1 |  | 
2 | PQKLLGCSPALKRSHSDSLDHDIF [CDC25A] | 3.12 ± 0.28 | 3.24 ± 0.33 |  | 
3 | VHYLHSKRIAHFDLKPENIMLLDK [DAPK3] | 2.33 ± 0.34 | 2.17 ± 0.28 |  | 
4 | FRADQRSGPRQLLTLYNPTGTALR [MOSPD3] | 3.2 ± 0.22 | 3.39 ± 0.35 |  | 
5 | QTVPKRIPERLSIFCRDTQTVFQK [IQUB] | 2.56 ± 0.43 | 2.24 ± 0.31 |  | 
6 | DRGTRVVFIDFSVYNANINLFCVL [PKD2L1] | 3.11 ± 0.08 | 2.95 ± 0.31 |  | 
7 | PAPASPAISVVGVSAGGHTLSRPP [TFE3] | 4.37 ± 0.28 | 4.38 ± 0.25 |  | 
8 | WIAHSEKLPRKVLQHVSEPQAHQE [SPACA9] | 4.11 ± 0.35 | 4.05 ± 0.34 |  | 
9 | HVGWLLVRKHPAVKEKGSTLDLSD [SCD] | 2.3 ± 0.26 | 2.48 ± 0.45 |  | 
10 | CAMEDHNCEQLCVNVPGSFVCQCY [MATN2] | 2.5 ± 0.35 | 2.48 ± 0.39 |  | 
11 | LKIYNKREEDFPSLREYNDFLEEV [MNAT1] | 3.19 ± 0.39 | 3.68 ± 0.72 |  | 
12 | KNSDGMEAAGVQIQMVNESLGYVR [CD207] | 3.83 ± 0.28 | 4.08 ± 0.13 |  | 
13 | PQTLIMAYDYAKEVNSAEELEGLI [FEM1C] | 3.75 ± 0.32 | 3.56 ± 0.27 |  | 
14 | CINRFQQVESRWGYSGTSDRIRFT [BTBD1] | 1.8 ± 0.12 | 2.07 ± 0.31 |  | 
15 | RRSSLVITTKIFWGGKAETERGLS [KCNAB2] | 2.09 ± 0.42 | 2.15 ± 0.29 |  | 
16 | LSRYLIEPCGPGKSKLTYMCRVDL [DLC1] | 2.99 ± 0.73 | 3.2 ± 1.3 |  | 
17 | DFWLNMAALTEALQRQAEQNPTAS [FCHO1] | 2.51 ± 0.21 | 2.47 ± 0.35 |  | 
18 | GFLQALSLAVDKQFEERKKLAAYI [TRIP13] | 3.35 ± 0.22 | 2.54 ± 0.39 |  | 
19 | DMRRDEEGSLCAAHLPKAQLSGYA [FBF1] | 4.12 ± 0.25 | 4.15 ± 0.25 |  | 
20 | TGEVRTARALLEDDSDTQQVVVLV [PCDHGC5] | 2.5 ± 0.39 | 2.82 ± 0.27 |  | 
21 | KRFTDAGFEHYDLFFIDGSTPSDN [CDC14A] | 3.45 ± 0.16 | 3.45 ± 0.084 |  | 
22 | GKKDVSHSSPVDLKIPQVRGMDLS [LCOR] | 4.32 ± 0.31 | 4.24 ± 0.36 |  | 
23 | NGDPESVASLHWDGGALLGVLQYR [ADAMTS4] | 2.29 ± 0.74 | 2.54 ± 0.35 |  | 

Row | Sequence | protein stability index [1] | protein stability index [2] | protein stability index [3] | protein stability index [4]
24 | SPRDLQFSEIRETSAKVNWMPPPS [TNXB] | 3.73 ± 0.23 | 3.69 ± 0.29 |  | 
25 | LERGRASLIFSLKNEVGGLIKALK [TPH1] | 3.37 ± 0.36 | 2.36 ± 0.61 |  | 
26 | ELEKAHLALIDYLTQKRSQLVKKL [VPS39] | 2.28 ± 0.39 | 2.58 ± 0.23 |  | 
27 | IEKEYQPHVIVSTTGPNPFTTLTD [ADD1] | 3.74 ± 0.25 | 3.9 ± 0.23 |  | 
28 | LASQNKPLWQCYLGRFNDINVPIR [PDS5B] | 2.03 ± 0.73 | 2.72 ± 0.058 |  | 
29 | LISKGANVNRTTANNDHTVLSLAC [ANKRD17] | 2.82 ± 0.22 | 2.81 ± 0.27 |  | 
30 | EELSVLEVFEGREDSIFGDPKKLL [MAGEA6] | 4.22 ± 0.35 | 4.32 ± 0.28 |  | 
31 | RTLWSGLPATLVMTVPATAIYFTA [SLC25A39] | 3.07 ± 0.42 | 3.1 ± 0.68 |  | 
32 | EWVLSTGQDKQFAWHCSESGQRLG [WDFY2] | 3.21 ± 0.23 | 3.05 ± 0.2 |  | 
33 | ILRSQLVTLLVRGVCYSESQSSAS [CLCN6] | 2.88 ± 0.38 | 2.95 ± 0.39 |  | 
34 | SSSSSFGSGFGGGYGGGLGAGFGG [KRT16] | 2.65 ± 0.46 | 2.89 ± 0.3 |  | 
35 | RPGGGRVKIESVKLDFKEKAQAKV [MAP2] | 4.06 ± 0.3 | 4.01 ± 0.25 |  | 
36 | MPHSVTLRGPSPWGFRLVGGRDFS [PDLIM4] | 2.61 ± 0.37 | 2.8 ± 0.23 |  | 
37 | GANVKPRNSTPPSLARNPAPGVLT [ZC2HC1A] | 4.24 ± 0.23 | 4.16 ± 0.5 |  | 
38 | LSVLPQLEFKLKSNDNEERLQVVK [PDS5B] | 3.77 ± 0.11 | 3.7 ± 0.25 |  | 
39 | FAPLLDEQYDLATKRVRQLLDLDP [GOLPH3] | 2.64 ± 0.48 | 2.94 ± 0.33 |  | 
40 | NLSEFQHVISRSPDFASSFKIVL [CIB1] |  |  | 2.29 ± 0.45 | 2.32 ± 0.44
41 | THLLMGLAGGKLILSLEGGYNLRA [HDAC6] | 3.08 ± 0.91 | 2.91 ± 1 |  | 
42 | SKIPFKILSGHEHAVSTCHFCVDD [WDR88] | 2.91 ± 0.25 | 3.07 ± 0.26 |  | 
43 | YDASAIDFSRCDMDGATLCNCALE [ELF3] | 3.99 ± 0.32 | 4.02 ± 0.33 |  | 
44 | LRLCAWGLASWPLARGIHVAGILS [POMT2] | 2.3 ± 0.26 | 2.22 ± 0.2 |  | 
45 | LLQGAGLDVERWLKPAMTQAQDEV [FCHSD1] | 3.6 ± 0.28 | 3.54 ± 0.26 |  | 
46 | IYPVWTYSYLVLLFPVFLATDYLR [SLC19A2] | 3.11 ± 0.53 | 3.29 ± 0.37 |  | 

Row | Sequence | protein stability index [1] | protein stability index [2] | protein stability index [3] | protein stability index [4]
47 | VPPRRATISSWRNDRMSTRHDGYA [RBMY1A1] | 3.37 ± 0.092 | 3.4 ± 0.36 |  | 
48 | SHRVVLRPRGKERHKSGVHQPPQA [LYSMD4] | 3.91 ± 0.2 | 3.98 ± 0.3 |  | 
49 | SIPVTELSASGPFESHDLLRKGFS [POMP] | 3.5 ± 0.25 | 3.39 ± 0.34 |  | 
50 | FMLLTQARLFDEPQLASLCLDTID [BTBD1] | 2.29 ± 0.52 | 2.34 ± 0.48 |  | 
51 | VLNDRFQRQKYLSLQQMQELSNIL [NANOGP8] | 2.52 ± 0.11 | 2.64 ± 0.32 |  | 
52 | RLSSSLQGSAVTLKTSKMALSPSA [CDC14A] | 3.5 ± 0.38 | 3.65 ± 0.32 |  | 
53 | LGHAVLPSNARGPILSRSTSTGSA [SPRY1] | 3.93 ± 0.18 | 4.15 ± 0.098 |  | 
54 | VIYNYVQRPFIRMSWEKEEGKSRH [BTBD10] | 2.24 ± 0.32 | 2.46 ± 0.17 |  | 
55 | GKGRTASPINSPARGTPSPKRMPS [FSD1] | 5.13 ± 0.25 | 5.05 ± 0.32 |  | 
56 | PQEEIATKKLRLTKPSKSAALHID [INTS4] | 4.36 ± 0.047 | 4.46 ± 0.1 |  | 
57 | GLQVEGLRRRLEELQQELSLKDQE [LRRC45] | 4.47 ± 0.17 | 4.73 ± 0.16 |  | 
58 | DEKAKPRDRQQAPGLGQESKAPGS [TLE6] | 5.49 ± 0.21 | 5.49 ± 0.21 |  | 
59 | LPLMDLCRRSVRLALGRERLGEIH [SPSB1] | 2.56 ± 0.28 | 2.42 ± 0.29 |  | 
60 | IVEKRVLAHLAPLFDNPKLDKELR [INTS3] | 2.13 ± 0.2 | 2.13 ± 0.37 |  | 
61 | PEKHQVPEKLIWGDQDPLSKIPFK [WDR88] | 3.72 ± 0.22 | 4.26 ± 0.38 |  | 
62 | RLSGAGPAEEAGPEGGLEEPDALD [FOXJ1] | 5.51 ± 0.31 | 5.59 ± 0.2 |  | 
63 | ITLSQEQIQKYTDCLQFYVNSTLK [RTN1] | 2.08 ± 0.1 | 2.1 ± 0.086 |  | 
64 | RRGRSPKGEFKDEEETVTTKHIHI [CLINT1] | 4.78 ± 0.14 | 4.73 ± 0.26 |  | 
65 | SAGIAKLEEGDELQLAIPRENAQI [TNFSF13B] | 5.08 ± 0.25 | 4.97 ± 0.23 |  | 
66 | RSTCNVVQDEFLDTPCTNRGLPLL [DLC1] | 3.21 ± 0.27 | 3.21 ± 0.42 |  | 
67 | NGSVGVKNSMENGRPPDPADWAVM [SAMD13] | 3.99 ± 0.26 | 4.06 ± 0.24 |  | 
68 | LGTRESDTEVITVEKSSPATSLFV [BCL2L13] | 3.84 ± 0.15 | 4.04 ± 0.12 |  | 
69 | LRDEHRCASKYGRDWERYTAAVPY [DHCR7] | 2.67 ± 0.12 | 2.92 ± 0.2 |  | 

Row | Sequence | protein stability index [1] | protein stability index [2] | protein stability index [3] | protein stability index [4]
70 | HASGDASYSAGDSGDAAAQPAFTG [EPB41L3] | 5.32 ± 0.21 | 5.21 ± 0.21 |  | 
71 | SQRQAKELKLEQQEAAERESKLLR [LRRC45] | 5.17 ± 0.28 | 5.22 ± 0.1 |  | 
72 | SQEAADTPDTRHPCSLGSSLVADY [YJU2B] | 4.34 ± 0.35 | 4.59 ± 0.21 |  | 
73 | MKSAMRKLWSKKVSLAGKWLYHS [OR4A15] |  |  | 2.47 ± 1.1 | 2.59 ± 0.44
74 | GLVYRLNRFRVEISFHFEVTNHNI [TRIM43] | 3.33 ± 0.66 | 3.35 ± 0.8 |  | 
75 | PTMAPAGQPAPVSMVPPSPAMAAS [SNAP91] | 4.75 ± 0.22 | 4.89 ± 0.28 |  | 
76 | NIKPRRYLTVVFEHDAWFIFFMAA [SLC29A1] | 3.1 ± 0.48 | 2.48 ± 0.61 |  | 
77 | MHMVDLMSSIICEGDTVSQELLDT [PDS5B] | 3.6 ± 0.31 | 3.57 ± 0.14 |  | 
78 | WIPQAGPPELNYGATGECQNFLDP [ZNF449] | 4.29 ± 0.18 | 4.28 ± 0.27 |  | 
79 | NNTLVALPIVAIENILSFMSYDEI [FBXO28] | 3.22 ± 0.33 | 3 ± 0.61 |  | 
80 | LKRPVNVPFDIFTEEVKFYQLGEE [KCNA4] | 3.01 ± 0.27 | 3.27 ± 0.37 |  | 
81 | AEAERLDVKAMGPLVLTEVLFNEK [EIF5] | 4.01 ± 0.2 | 4.17 ± 0.24 |  | 
82 | TELRLLGRTHSACDALRTLAEARR [RSAD1] | 3.46 ± 0.21 | 3.59 ± 0.18 |  | 
83 | IRERATIEETYSKAMAKLSKLASN [FCHO1] | 3.02 ± 0.19 | 2.91 ± 0.3 |  | 
84 | LGAEIRNGMAIIRPPGHHAQHSLM [HDAC6] | 2.92 ± 0.096 | 2.99 ± 0.26 |  | 
85 | ACHPFLLGPPLVRKRIHDSRVAGF [TOR1AIP2] | 2.51 ± 0.39 | 2.5 ± 0.18 |  | 
86 | AEPLKEDKPVTGPRNKTENGLTPK [ATF6] | 5.5 ± 0.26 | 5.35 ± 0.18 |  | 
87 | NMSSSRGPLPVKRGPPPRSGGPPP [RBMX] | 4.41 ± 0.22 | 4.45 ± 0.45 |  | 
88 | KRDLLGALKYWKKAMNMRYSDRTN [FEM1C] | 1.95 ± 0.25 | 2.27 ± 0.33 |  | 
89 | VKGCSMYVALFPCNECAKLIIQAG [DCTD] | 2.97 ± 0.37 | 2.8 ± 0.49 |  | 
